In assay [1] the target is T1, human PVRIG expressed on cells (human, UniProt Q6DKI7 41-326).
T1 construct: whole, on cells; cDNA encoding human PVRIG in pCHO1.0 for CHO cells; also called CHO-huPVRIG cells
T1 sequence (looked up): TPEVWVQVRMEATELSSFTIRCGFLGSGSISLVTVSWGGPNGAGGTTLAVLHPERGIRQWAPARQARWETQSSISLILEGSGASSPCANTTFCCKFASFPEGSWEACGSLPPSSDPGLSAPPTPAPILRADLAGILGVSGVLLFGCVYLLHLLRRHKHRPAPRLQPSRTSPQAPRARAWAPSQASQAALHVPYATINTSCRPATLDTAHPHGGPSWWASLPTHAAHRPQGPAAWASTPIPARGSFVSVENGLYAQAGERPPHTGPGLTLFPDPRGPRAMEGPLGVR
Description: flow cytometry, CHO-huPVRIG cells. As for the experimental part:
(§1) The overexpressing cells were expanded and adjusted to an appropriate cell density, and added to a 96-well flow cytometry plate. After centrifugation, the cells were added with a gradiently diluted sample to be tested, and incubated at 4° C. for 30 minutes. The cells were washed twice with PBS, and added with a fluorescent secondary antibody correspondingly diluted to an appropriate concentration, then incubated at 4° C. for 30 minutes, and washed twice with PBS. Cells were resuspended with PBS, and detected on a CytoFlex flow cytometer, and the corresponding MFI was calculated. Graphpad software was used for graphical analysis to obtain EC₅₀ values.
(In flow cytometry, cells or beads pass a laser one at a time.)

In assay [2] the target is T2, mouse PVRIG overexpressed on CHO cells (mouse, UniProt A0A1B0GS01 1-234).
T2 construct: also called CHO-muPVRIG cells
T2 sequence: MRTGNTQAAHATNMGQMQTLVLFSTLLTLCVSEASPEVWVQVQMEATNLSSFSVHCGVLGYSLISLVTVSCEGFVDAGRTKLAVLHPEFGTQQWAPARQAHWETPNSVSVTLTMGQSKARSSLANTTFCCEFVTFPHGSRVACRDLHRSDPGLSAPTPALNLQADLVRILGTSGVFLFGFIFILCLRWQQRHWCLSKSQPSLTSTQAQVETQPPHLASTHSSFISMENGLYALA
The assay is described as follows: flow cytometry, CHO-muPVRIG cells. As for the experimental part:
as §1

Assay [3] has as its target T3, cynomolgus PVRIG overexpressed on CHO cells (cynomolgus, UniProt A0A2K5WVV8 1-322).
T3 construct: whole, on cells; also called CHO-cynoPVRIG cells
T3 sequence: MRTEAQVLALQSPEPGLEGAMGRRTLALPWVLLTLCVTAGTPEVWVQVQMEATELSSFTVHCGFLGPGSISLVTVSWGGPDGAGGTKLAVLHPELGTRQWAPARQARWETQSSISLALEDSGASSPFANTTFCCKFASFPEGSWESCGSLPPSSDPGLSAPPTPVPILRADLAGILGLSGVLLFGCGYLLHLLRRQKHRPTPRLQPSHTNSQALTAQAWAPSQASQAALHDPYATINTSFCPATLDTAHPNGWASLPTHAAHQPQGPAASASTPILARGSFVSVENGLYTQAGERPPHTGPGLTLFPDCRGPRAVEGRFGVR
Description: flow cytometry, CHO-cynoPVRIG cells. As for the experimental part:
as §1

For assay [4], the target named is Biotin-labeled mouse PVRIG huFc protein (mouse). Description: competition ELISA: biotin mouse PVRIG-huFc binding to coated mouse CD112-his. The method, then: Specifically, mouse CD112-his protein diluted with 1× coating buffer to a final concentration of 1 μg/mL was added to the ELISA plate at 100 μL/well, covered with the film, and coated overnight at 4° C. The coating solution in the ELISA plate was discarded, and the ELISA plate was washed three times with 1×PBST and was blocked with 5% BSA/PBS at 200 μL/well for 2 hours at room temperature. During the blocking period, the samples to be tested were gradient diluted with 1% BSA/PBS to a final volume of 60 μL/well. […] The blocking solution in the ELISA plate was discarded, and the above sample mixture was added at 100 μL/well and incubated for 2 hours at room temperature. The above co-incubated samples were discarded, the ELISA plate was washed three times with 1×PBST, and SA-HRP diluted with 1% BSA/PBS was added at 100 μL/well and incubated for 1 hour at room temperature. The SA-HRP dilution was discarded, the ELISA plate was washed three times with 1×PBST, ELISA Chromogen Solution was added at 100 μL/well and incubated for 1-3 minutes at room temperature, ELISA stopping solution was added at 50 μL/well and the absorbance values were read at 450 nm.
(An ELISA detects its analyte on a solid surface through an enzyme-linked reagent.)

Assay [5] has as its target T4, human PVRIG protein with mouse IgG2a Fc tag (human; mouse, UniProt Q6DKI7 41-171, limits assumed).
T4 construct: Whole entry named; not shown: mouse IgG2a Fc tag
T4 sequence (looked up): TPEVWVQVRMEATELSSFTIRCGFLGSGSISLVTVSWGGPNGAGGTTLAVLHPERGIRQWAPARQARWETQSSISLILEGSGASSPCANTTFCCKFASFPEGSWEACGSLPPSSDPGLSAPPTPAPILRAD
The assay is described as follows: flow cytometry, competition: human PVRIG-mouse IgG2a Fc (1 ug/mL) binding to CHO-huCD112 cells. As for the experimental part:
Specifically, CHO cells overexpressing human CD112 (CHO-huCD112 cells) were generated by transfection of the pCHO1.0 vector (purchased from Invitrogen) with cDNA encoding human CD112 cloned into the multiple cloning site (MCS), respectively, followed by pressure screening. The CHO-huCD112 cells were expanded and adjusted to a cell density of 2×10⁶ cells/mL, added to a 96-well flow plate at 100 μL/well, and centrifuged for later use. The purified monoclonal antibody was gradient diluted with PBS and the diluted sample was added to a blank 96-well flow plate at 60 μL/well. […] The above incubated samples were added at 100 μL/well to the 96-well flow plate containing CHO-huCD112 cells, incubated at 4° C. for 30 min and washed twice with PBS. APC-conjugated goat anti-mouse IgG antibody diluted 100-fold with PBS was added at 100 μL/well, incubated at 4° C. for 30 minutes and washed twice with PBS. Cells were resuspended with PBS at 100 μL/well, and detected on a CytoFlex flow cytometer, and the corresponding MFI was calculated.

Assay [6] addresses T5, human TIGIT expressed on cells (human, UniProt Q495A1 22-244).
T5 construct: whole, on cells; cDNA encoding human TIGIT in pCHO1.0 for CHO cells; also called CHO-huTIGIT cells
T5 sequence (looked up): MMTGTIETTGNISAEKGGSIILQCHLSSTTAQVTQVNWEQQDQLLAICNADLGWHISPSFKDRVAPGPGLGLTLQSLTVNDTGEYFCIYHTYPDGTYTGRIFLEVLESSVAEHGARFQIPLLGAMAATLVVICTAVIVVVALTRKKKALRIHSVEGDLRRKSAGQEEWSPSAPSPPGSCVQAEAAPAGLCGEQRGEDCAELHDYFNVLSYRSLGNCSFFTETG
The assay is described as follows: flow cytometry, CHO-huTIGIT cells.
Excerpt: as §1, with “Specifically, CHO cells overexpressing human TIGIT (CHO-huTIGIT cells), CHO cells overexpressing cynomolgus TIGIT (CHO-cynoTIGIT cells) and CHO cells overexpressing mouse TIGIT (CHO-muTIGIT cells) were generated by transfection of the pCHO1.0 vector (purchased from Invitrogen) with cDNA encoding human TIGIT, cynomolgus TIGIT and mouse TIGIT cloned into the multiple cloning site (MCS), respectively, followed by pressure screening. The overexpressing” for “The overexpressing”

The target in assay [7] is T6, cynomolgus TIGIT overexpressed on CHO cells (cynomolgus, UniProt A0A7N9I9V4 89-312).
T6 construct: whole, on cells; also called CHO-cynoTIGIT cells
T6 sequence (A0A7N9I9V4 entry or part of it): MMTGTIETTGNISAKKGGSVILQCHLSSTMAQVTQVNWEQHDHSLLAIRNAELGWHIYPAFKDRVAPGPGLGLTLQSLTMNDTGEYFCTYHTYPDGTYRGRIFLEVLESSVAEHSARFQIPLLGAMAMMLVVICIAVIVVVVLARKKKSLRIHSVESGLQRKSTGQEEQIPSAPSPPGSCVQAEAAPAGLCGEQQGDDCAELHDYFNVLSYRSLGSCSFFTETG
Description: flow cytometry, CHO-cynoTIGIT cells.
Excerpt: as §1, with “Specifically, CHO cells overexpressing human TIGIT (CHO-huTIGIT cells), CHO cells overexpressing cynomolgus TIGIT (CHO-cynoTIGIT cells) and CHO cells overexpressing mouse TIGIT (CHO-muTIGIT cells) were generated by transfection of the pCHO1.0 vector (purchased from Invitrogen) with cDNA encoding human TIGIT, cynomolgus TIGIT and mouse TIGIT cloned into the multiple cloning site (MCS), respectively, followed by pressure screening. The overexpressing” for “The overexpressing”

The target in a further assay is T7, human TIGIT-his protein (human, UniProt Q495A1 22-141).
T7 construct: not shown: his tag
T7 sequence: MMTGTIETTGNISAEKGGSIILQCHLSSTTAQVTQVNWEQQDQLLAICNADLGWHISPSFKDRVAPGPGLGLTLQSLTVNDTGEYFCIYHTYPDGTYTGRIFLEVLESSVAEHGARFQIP
Description: BLI (ForteBio), IgG on AHQ sensor, 100 nM TIGIT-his, monovalent, 1:1 model. As for the experimental part: (§2) Biofilm layer optical interference technology (ForteBio) was used to determine the binding and dissociation […] values of the anti-TIGIT monoclonal antibodies obtained in Example 1 to human, cynomolgus monkey and mouse TIGIT. Fortebio affinity measurements were performed according to existing methods (Este, P et al., High throughput solution-based measurement of antibody-antigen affinity and epitope binning. Mabs, 2013.5(2): p 270-8).
(§3) The antibody-loaded sensor was incubated in 100 nM TIGIT-his antigen to the plateau phase, and then the sensor was transferred to an analysis buffer and incubated for at least 2 minutes for measuring dissociation rate. The kinetic analysis was performed using a 1:1 binding model.

Assay [8] has as its target T8, cynomolgus monkey TIGIT-his protein (cynomolgus monkey).
T8 construct: also called Cynomolgus TIGIT-his; not shown: his tag
Described as above. As for the experimental part:
as §2, §3

In assay [9] the target is T5, human TIGIT expressed on cells. The assay is described as follows: flow cytometry, competition with human CD155-mouse IgG2a Fc (2 ug/mL) on CHO-huTIGIT cells. The method, then:
(§4) Specifically, the CHO-huTIGIT cells were expanded and adjusted to a cell density of 2×10⁶ cells/mL, added to a 96-well flow plate at 100 μL/well, and centrifuged for later use. The purified monoclonal antibodies were diluted 3-fold with PBS starting at 400 nM for a total of 12 concentration gradients. The diluted sample was added at 60 μL/well to the cells-carrying 96-well flow plate, and incubated at 4° C. for 30 minutes. […] APC-conjugated goat anti-mouse IgG antibody diluted 100-fold with PBS was added at 100 μL/well, incubated at 4° C. for 30 minutes, and washed twice with PBS. Cells were resuspended with PBS at 100 μL/well, and detected on a CytoFlex flow cytometer, and the corresponding MFI was calculated.

Assay [10] shares this target. The assay is described as follows: flow cytometry on activated human primary T cells (TIGIT), readout positive cell (%); unit from the concentration axis. From the text: The binding activity of the anti-TIGIT antibody of the present invention to TIGIT on the surface of activated T cells was detected based on the flow cytometry detection method.
Specifically, human PBMC were sorted according to the experimental protocol provided by […] Company (stemcell, Cat. No.: #17951C) to obtain human total T cells. […] The activated T cells were adjusted to an appropriate cell density and added to a 96-well flow cytometry plate. After centrifugation, the gradiently diluted sample to be tested was added, and incubated at 4° C. for 30 minutes. Washing was carried out twice with PBS, and a fluorescent secondary antibody diluted to an appropriate concentration was added, incubated at 4° C. for 30 minutes, and washed twice with PBS. […]

The target is the same in assay [11]. Description: flow cytometry on CHO cells overexpressing human TIGIT, median fluorescence intensity PE-A; unit from the concentration axis.
Excerpt: as §1, with “Specifically, CHO cells overexpressing human TIGIT (CHO-huTIGIT cells), CHO cells overexpressing cynomolgus TIGIT (CHO-cynoTIGIT cells) and CHO cells overexpressing mouse TIGIT (CHO-muTIGIT cells) were generated by transfection of the pCHO1.0 vector (purchased from Invitrogen) with cDNA encoding human TIGIT, cynomolgus TIGIT and mouse TIGIT cloned into the multiple cloning site (MCS), respectively, followed by pressure screening. The overexpressing” for “The overexpressing”

In assay [12] the target is T6, cynomolgus TIGIT overexpressed on CHO …. Description: flow cytometry on CHO cells overexpressing cynomolgus TIGIT, median fluorescence intensity PE-A; unit from the concentration axis.
Excerpt: as §1, with “Specifically, CHO cells overexpressing human TIGIT (CHO-huTIGIT cells), CHO cells overexpressing cynomolgus TIGIT (CHO-cynoTIGIT cells) and CHO cells overexpressing mouse TIGIT (CHO-muTIGIT cells) were generated by transfection of the pCHO1.0 vector (purchased from Invitrogen) with cDNA encoding human TIGIT, cynomolgus TIGIT and mouse TIGIT cloned into the multiple cloning site (MCS), respectively, followed by pressure screening. The overexpressing” for “The overexpressing”

The target in assay [13] is T5, human TIGIT expressed on cells. Description: flow cytometry blocking assay: binding of human CD155 protein with mouse IgG2a Fc tag to CHO cells overexpressing human TIGIT, median fluorescence intensity APC-A; unit from the concentration axis. The method, then:
as §4

The values below come from patent US20250223354A1 (BIOTHEUS, published 2025).

One may read the EC50 as the concentration that produces a half-maximal response. A word on the IC50: it is the concentration needed to halve the response being measured. The term Kd denotes the constant that tells how readily two partners part at equilibrium.

T8 sequence (chain, as listed by the source): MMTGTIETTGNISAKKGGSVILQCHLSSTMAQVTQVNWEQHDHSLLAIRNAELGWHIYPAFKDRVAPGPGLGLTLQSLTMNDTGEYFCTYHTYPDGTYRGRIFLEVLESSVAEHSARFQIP

B1: anti-PVRIG monoclonal antibody ADI-56127-G1 (antibody, human IgG1, V domains shown)
VH: QVQLVQSGAEVKKPGSSVKVSCKASGGTESVDAISWVRQAPGQGLEWMGDIIPFFDTDYAQKFQGRVTITADESTSTAYMELSSLRSEDTAVYYCAREGGTSWTHFFDLWGRGTLVTVSS
VL: not shown
notes: Wild-type human IgG1 heavy chain constant region, human kappa light chain constant region; HEK293
For B1, the figures for the EC50 in assay [1], in assay [2] and in assay [3] were 2.51 nM, 6.47 nM and 1.96 nM, respectively. The figures for the IC50 in [4] and in assay [5] were 1.57 nM and 1.23 nM, respectively.

B2: anti-PVRIG monoclonal antibody ADI-56127-G1LALA (antibody, human IgG1, V domains shown)
VH: B1 VH
VL: not shown
notes: Human IgG1 heavy chain constant region modified by L234A, L235A; human kappa light chain constant region; HEK293
As for B2, the EC50 was determined as 2.44 nM in assay [1], 5.38 nM in assay [2] and 1.98 nM in assay [3]. Besides, the IC50 in [4] was 1.78 nM; in [5] it was 1.36 nM.

B3: Tiragolumab (antibody, V domains shown)
VH: EVQLQQSGPGLVKPSQTLSLTCAISGDSVSSNSAAWNWIRQSPSRGLEWLGKTYYRFKWYSDYAVSVKGRITINPDTSKNQFSLQLNSVTPEDTAVFYCTRESTTYDLLAGPFDYWGQGTLVTVSS
VL: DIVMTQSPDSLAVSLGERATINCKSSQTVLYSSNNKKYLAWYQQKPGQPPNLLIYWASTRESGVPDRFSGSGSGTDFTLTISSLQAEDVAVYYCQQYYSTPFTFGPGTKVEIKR
On to B3, for which the EC50 in assay [6] is 1.35 nM; in assay [7] it was 4.18 nM; in [10], 0.274 nM; in assay [11] it was 1.34 nM; in [12], 4.18 nM. Also, the Kd with human TIGIT-his protein turned out to be 0.87 nM; in assay [8] it was 3.5 nM. For the same molecule, the IC50 in assay [9] is 0.63 nM; in assay [13] it was 0.634 nM.
